Assay results reported in patent US20120189633A1 (KOLLTAN PHARMACEUTICALS, published 2012).
Positions count from the first letter of the chain named.

Columns and labels:
[1] = target: full-length, wild-type human KIT receptor expressed on cells (human, UniProt P10721 26-976); assay: cell-based or functional assay
[2] = target: T1, recombinant KIT D4/D5 polypeptide (D4/D5 region of human KIT, V308 to H515, with 5xHis tag) (human, UniProt P10721 26-519); assay: solid phase ELISA, antigen coated on the plate
T1 construct: also called KIT D4/D5 antigen; KIT immunogen
Method: The binding activity of antibodies 37M and 37C obtained from mice immunized with a KIT immunogen containing the D4/D5 region of the human KIT extracellular region was characterized by solid phase ELISA. […] The binding affinity of antibody 37C for an antigen containing the D4/D5 region (see FIG. 2A) of human KIT was also tested by solid phase ELISA. The general protocol used for the solid phase ELISA experiments are described below.
Preparation of antibody sample with serial dilution: Dilution buffer (100 μL) was added to columns 1 and 7 of a 96 well plate, and 50 μL of dilution buffer were added to all the remaining wells. The test antibody (100 μL) was added to the first well containing 100 μL dilution buffer, mixed by pipetting, and 50 μL from the first well were removed and added into the second well and mixed. This dilution step was repeated across the row until the dilution step was repeated for a total of six dilutions. This dilution process was repeated for each sample.
ELISA: The plate with the absorbed antigen was removed from the −80° C. freezer and was allowed to thaw at room temperature. The borate buffer was removed by flicking the plate into the sink and blotting the plate dry. Blocking buffer (200 μL) was added to each well and was allowed to incubate at room temperature for one hour. The blocking buffer was removed, again by flicking the plate into the sink. […]

[3] = target: T1, recombinant KIT D4/D5 polypeptide …; assay: competition solid phase ELISA on KIT D4/D5 antigen; 37C titrated alone, without competitor
Method: (§1) Competitive binding assays were carried out with antibody 37M or 37C as described below and using solid phase ELISA as described in Example 2 (Section 6.2). In particular, serial dilutions of the reference antibody (either 37M or 37C) were combined with constant concentrations of a competing antibody (37M in the case of 37C, and 37C in the case of 37M) and incubated in wells of 96-well plates coated with a recombinant KIT polypeptide containing the D4/D5 region depicted in FIG. 2A. Reference antibody binding was then detected through the use of an HRP-conjugated, species-specific secondary antibody. Antibody 37M has a mouse constant region while antibody 37C has a human constant region. Therefore, when antibody 37M was used as a reference antibody and antibody 37C was used as a competing antibody, the reference antibody was detected using an anti-mouse IgG secondary antibody; and when antibody 37C was used as a reference antibody and antibody 37M was used as a competing antibody, the reference antibody was detected using an anti-human IgG secondary antibody. […]
(§2) Eight, 3-fold dilutions of the reference antibody samples were prepared beginning at 20 nM (2×), and combined 1:1 with a 20 nM solution of the competing antibody to yield final 1× values. […] The plates were processed similarly as described above for data collection on a plate reader. […]

[4] = target: T1, recombinant KIT D4/D5 polypeptide …; assay: competition solid phase ELISA on KIT D4/D5 antigen; 37C titrated with competitor 37M at 10 nM
Method: as §1, §2

T1 sequence (P10721 other isoform, or with tags, fused parts or gaps): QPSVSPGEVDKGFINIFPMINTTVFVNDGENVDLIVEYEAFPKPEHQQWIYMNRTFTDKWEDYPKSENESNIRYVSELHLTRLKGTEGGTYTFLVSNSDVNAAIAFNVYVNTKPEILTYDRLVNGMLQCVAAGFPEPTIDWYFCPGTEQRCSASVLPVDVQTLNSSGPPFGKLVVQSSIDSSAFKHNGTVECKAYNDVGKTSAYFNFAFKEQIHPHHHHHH
Chain of full-length, wild-type human KIT receptor expressed on cells (P10721 other isoform, or with tags, fused parts or gaps limits assumed): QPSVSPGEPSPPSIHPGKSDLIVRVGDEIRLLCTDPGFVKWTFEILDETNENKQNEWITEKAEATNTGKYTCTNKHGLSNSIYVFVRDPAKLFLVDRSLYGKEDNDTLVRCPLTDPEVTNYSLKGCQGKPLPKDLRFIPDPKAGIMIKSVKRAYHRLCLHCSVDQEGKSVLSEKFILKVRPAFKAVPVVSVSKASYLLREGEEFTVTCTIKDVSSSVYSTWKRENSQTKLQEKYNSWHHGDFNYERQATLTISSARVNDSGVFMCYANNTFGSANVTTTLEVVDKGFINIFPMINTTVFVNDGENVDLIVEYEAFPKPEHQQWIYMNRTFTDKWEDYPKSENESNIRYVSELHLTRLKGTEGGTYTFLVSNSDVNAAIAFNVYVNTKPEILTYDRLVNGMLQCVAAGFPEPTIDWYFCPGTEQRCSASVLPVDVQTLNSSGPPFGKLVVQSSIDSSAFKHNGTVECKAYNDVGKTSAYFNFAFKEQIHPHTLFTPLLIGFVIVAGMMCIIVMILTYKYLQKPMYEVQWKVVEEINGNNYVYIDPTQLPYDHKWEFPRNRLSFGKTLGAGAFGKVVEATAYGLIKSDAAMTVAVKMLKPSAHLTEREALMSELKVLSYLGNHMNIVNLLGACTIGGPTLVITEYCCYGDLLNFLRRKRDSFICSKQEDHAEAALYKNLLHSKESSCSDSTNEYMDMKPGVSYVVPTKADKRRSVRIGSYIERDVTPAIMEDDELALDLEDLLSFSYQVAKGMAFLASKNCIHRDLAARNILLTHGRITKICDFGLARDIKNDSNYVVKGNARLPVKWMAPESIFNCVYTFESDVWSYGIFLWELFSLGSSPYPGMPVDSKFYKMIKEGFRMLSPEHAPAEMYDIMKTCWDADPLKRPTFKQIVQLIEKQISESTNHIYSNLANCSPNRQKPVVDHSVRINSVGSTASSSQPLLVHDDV

B1: antibody 37C (antibody, human IgG1, kappa, V domains shown)
VH: QVQLKQSGAELVRPGASVKLSCKASGYTFTDYYINWVKQRPGQGLEWIARIYPGSGNTYYNEKFKGKATLTAEKSSSTAYMQLSSLTSEDSAVYFCARGVYYFDYWGQGTTLTVSA
VL: DIVMTQSQKFMSTSVGDRVSVTCKASQNVRTNVAWYQQKPGQSPKALIYSASYRYSGVPDRFTGSGSGTDFTLTISNVQSEDLADYFCQQYNSYPRTFGGGTKLEIKR
notes: also called chimeric antibody 37C
50% inhibition concentration (IC50), cell-based phospho-KIT assay, unsorted CHO/KIT-WT cells (FIG. 8) [1]: ~0.167 nM | IC50, cell-based phospho-KIT assay, sorted (high KIT expression) CHO/KIT-WT cells (FIG. 11B) [1]: ~0.334 nM | EC50 [2]: ~0.196 nM | EC50 [3]: 0.048 nM | EC50 [4]: 1 nM

B2: antibody 37M (antibody, V domains shown)
VH: B1 VH with A116S
VL: B1 VL
IC50, cell-based phospho-KIT assay, sorted (high KIT expression) CHO/KIT-WT cells (FIG. 11B) [1]: ~0.315 nM
